Source: IntAct's records for PubMed 26344566

Target: PEX5, P50542-3

effect of a mutation on the interaction: decreasing interaction strength
Substance: Serine-protein kinase ATM (Homo sapiens), Q13315 R3047Q
